Results published in article PMC10411628 (Chemical Science, 2023).
One block for each molecule: values may come before it.

Assays:
pancreatic cancer cells = settings: cited from earlier work
[1] = NMR titration of CP-1 with DG12; type: binding; settings: 1H–1H COSY, equimolar CP-1 and DG12, 20 mM, d6-DMSO, 25 °C
[2] = Circular dichroism of DG12; type: physicochemical; settings: circular dichroism spectrum
CP-1 (cyclic peptide 1) [3] = assay: QCM-D
CP-1 (cyclic peptide 1) [4] = assay: electrochemical impedance spectroscopy
CP-1 (cyclic peptide 1) [5] = assay: nanochannel device, transmembrane ionic current and Faraday current
CP-1 (cyclic peptide 1) [6] = assay: BLI

Molecule: Cc1sc(C(=O)c2cncnc2N[C@@H]2C[C@H](COS(N)(=O)=O)[C@@H](O)C2)cc1[C@@H]1NCCc2ccc(Cl)cc21 [TAK-981]
- effect on SUMOylation (pancreatic cancer cells): selectively reduces SUMOylation

- conformation [2]: random coil conformation
Molecule: DVIEVYQEQTGG [DG12]
- largest chemical shift changes upon complexation, protons of DG12 [1]: H13 (isoleucine; C–H), H45 (glutamine; C–H), H51 (threonine; C–H), and H54 (glycine; N–H)

- adsorption amount (CP-1 (cyclic peptide 1) [3]): 142 ng cm^−2
- Rct increase at 10 nM DG12 (CP-1 (cyclic peptide 1) [4]): 277%
- transmembrane ionic current increase ratio at 1 × 10^−6 M DG12 (CP-1 (cyclic peptide 1) [5]): 84%
- Kd (CP-1 (cyclic peptide 1) [6]): 5.86 µM
Molecule: DVIEVYQEQTGG [DG12, terminal dodecapeptide sequence of SUMO1]
